We go through 1 compound from US20140023585A1, “177 LUTETIUM-LABELED BOMBESIN ANALOGS FOR RADIOTHERAPY” (UNIVERSITATSSPITAL BASEL, priority 2010, published 2014).

The test system of data set [1] is PC-3 tumors. As to the kind of experiment: Dosimetry by MIRD methodology from biodistribution data. Type of data set: in vivo. The note with it: mice. The source says:
Doses of 150-200 Gy in the tumor could be achieved considering a maximum activity of 450 MBq to be injected per animal. Kidneys were not critical instead it was the pancreas to be the dose limiting organ. (In contrast to rodent pancreas, human pancreas expresses only very low amounts of the GRPr.)

The subject of data set [2] is PC-3 tumors. As to the kind of experiment: Radionuclide therapy study with repeated injections. The settings on record: end of the study, compared to controls. Type of data set: in vivo, nude mice. The protocol: A first therapy study was conducted on 25 nude mice (15-20 g) subcutaneously implanted with PC-3 ([…]). For toxicity study the same therapy protocol was applied to 25 CD1 mice. Thirteen days after implantation the mice were randomly divided in 5 groups and treated as described below: • 1. […] 200 pmol of ^natcompound 2 • 5. PBS
According to the protocol agreed upon, three injections per week (days 0, 2, 4) were done and the procedure was repeated (days 14, 16, 18) after one pause week. Based on the biodistribution data of compound 3 with ^111In we observed that injections after 48 h would maintain stable the uptake in the tumor. The pause week is, in our opinion, important for the safety of the animals. The mice were periodically monitored by measuring tumor size and body mass. Animals with loss of >20% of their original weight or with tumor size >20 mm in diameter were sacrificed. Tumor sizes were determined by caliper measurements in two dimensions and tumor volumes were calculated assuming an elliptical shape.

For the compound `CC(C)C[C@H](NC(=O)C[C@H](O)[C@H](CC(C)C)NC(=O)[C@H](Cc1c[nH]cn1)NC(=O)CNC(=O)[C@@H](NC(=O)[C@H](C)NC(=O)[C@H](Cc1c[nH]c2ccccc12)NC(=O)[C@H](CCC(N)=O)NC(=O)[C@@H](Cc1ccccc1)NC(=O)CN1CCC(NC(=O)CN2CCN(CC(=O)O)CCN(CC(=O)O)CCN(CC(=O)O)CC2)CC1)C(C)C)C(N)=O` [compound 2, [^177Lu]-DOTA-4-amino-1-carboxymethylpiperidine-D-Phe-Gln-Trp-Ala-Val-Gly-His-Sta-Leu-NH2, metal not drawn], in the data set on PC-3 tumors [1], the dose limiting organ entry was “pancreas”. In addition, the histopathological changes result in the data set with PC-3 tumors [2] is given as “no compound (radio-peptide) related histopathological changes”.
